Laboratory results from the DeepSol protein solubility set.

Assay: soluble on expression in E. coli; label from the status in PepcDB or PDB records

Sequence | soluble on expression in E. coli
MSNTQKKNVPELRFPGFEGEWEEKKLGNLTTKIGSGKTPKGGSENYTNKGIPFLRSQNIRNGKLNLNDLVYISKDIDDEMKNSRTYYGDVLLNITGASIGRTAINSIVETHANLNQHVCIIRLKKEYYYNFFGQYLLSRKGKRKIFLAQSGGSREGLNFKEIANLKIFTPTIFEEQQKIGKFFSKLDRQIELEEQKLELLQQQKKGYMQKIFTQELRFKDENGEEYPEWENKFIKDIFIFENNRRKPITSSLREKGLYPYYGATGIIDYVKDYLFNNEERLLIGEDGAKWGQFETSSFIANGQYWVNNHAHVVKSNDHNLFFMNYYLNFKELRAFVTGNAPAKLTHANLCNINLKIPCLTEQDKVSALLKSIDNKMNNQMNRIELLKERKKGLLQKMFI | not soluble
MSKYWSNIVKKISPYVPGEQPKDKKYIKLNTNENPYPPSEKVLKAISAAVNESLRLYPDPACESLRNTLAKYYGIKASEVFVGNGSDELLAFSFMAFFNPGDTIIFPDITYSFYEVYSSMFSVNYRLIPLDDEFNVPVEEFFTENDGIILANPNAPTGKALPLQSIRKILEKNDDKVVIIDEAYVDFGARSSVPLIKEFENLLVIQTLSKSRALAGLRVGFALGSEQLIEGLDRVKNSINSYTLDRLALIGAEEAIKDHEYFCEIRDKIINTREWVSKKLSSMGFKVIESKANFIFISHPKINGRLLFEKYKENNILVRHFNSPRIDNFLRVSIGSDEEMNIFCEKTKEIIESLN | soluble
MIFMFRKVLFPTDFSEGAYRAVEVFEKRNKMEVGEVILLHVIDEGTLEELMDGYSFFYDNAEIELKDIKEKLKEEASRKLQEKAEEVKRAFRAKNVRTIIRFGIPWDEIVKVAEEENVSLIILPSRGKLSLSHEFLGSTVMRVLRKTKKPVLIIKEVDENELAKTKGTSG | soluble
MSHVQAVIFDAFGTITRIENARHPFRQLLKLGIAQGRRPKPDDASMLMRHPWGLAQAADHFGIDVTPAELARIQAELDAEVASIQPFADALACIEALQAHGLKVAVCSNLARPYGAAVKRIFPGLESYGFSYEIGTLKPDRRIYEAALTELAVDACKVWMIGDSQRCDRDGPIALGIKGHYLNRTGAGSPSDFRDLMAFKHSVFESRSP | not soluble
MAHHHHHHMDSDLSAEIARIEAELAQDAELRQQQQQLAPQQPPASLFGFGQTAPVQPQQQQQQQLFQTQPPQPQQQPSNPFNVNASPFMPTPQQPDYSQQQQQQQQPIGSAGQAAAQASAPTPIIHSFSKDTDSRSIFIGNLPRGTDGTPTTTPEELVQFFADCGNILNCTVLKDRATGEPKGTAYIEFADYTAMGKAIDTKNNANFKGSTIIVCVSTSPLFSLAGFFG | soluble
MKIEEVRFGLVKIDGKEFDHDIVIYPSGRIERRMKEISKKKHGTSHKLDPEELEKYLVEDFDVLLVGTGIYGMLSLLPESKKLVEDKEVIEKPTKEALKLLEELWGKKRILAIIHVTC | soluble
MSLNDLLTRRAVVAGMGVLGLGLLAGCSPARGLEFKYGKNMSNEILGRKFSLKDPQGNVRTLSSFYGSMPMVFFGFTQCPAVCPTTLARAAQIRKLLRGRDRDLFQVVFITLDPERDTPEVLDAYVKAFDPTFTALTGTPEEIAAVAKEFKVFYEKVPAGDTYTISHSSTSYVYDTRGTLRLSLGHSLNAKECAEDLVTLMEIEGHHHHHH | soluble
GMSKPAITLWSDAHFFSPYVLSAWVALQEKGLSFHIKTIDLDSGEHLQPTWQGYGQTRRVPLLQIDDFELSESSAIAEYLEDRFAPPTWERIYPLDLENRARARQIQAWLRSDLMPIREERPTDVVFAGAKKAPLTAEGKASAEKLFAMAEHLLVLGQPNLFGEWCIADTDLALMINRLVLHGDEVPERLVDYATFQWQRASVQRFIALSAKQSG | soluble
MGSDKIHHHHHHMIDSMTHRKLSKTAQPLSPTRPWHSTKATCYSAMLSTWSLSQKRLSISALILAITSTATWANEVKNQDIQAASKSNTCYVEGVSDRLNCGFVTVPENPNKPDGKQIQVHYVVLPAVKNANHEEALLAIAGGPGQSAIDNAAGFDAMLSKVRQQRDILLIDQRGTGRSNLLTCDESANPLSLDDDSIDPSAETQKCLDKIDADVSQYGSLNAVKDFEAVRAHLGYKKLHIYGISYGTRMAQLYMRLYPEQLATVTLDGVVPMQQSVLEIGSAIDRGFELLFKDCQENTVCKQQFPQLKAEFEQVANTLAKGAITENVFDPVTGEKNQLIITRGKFYGAIRMALYQTNVRALVPHAIHQAANNHFQPLLGLYALTVDNAGIAMGMHTSVVCGEDIHRITPAMREKAASSYVGQTMLDSMEKTCAIWKVPAVDNSFSEPISSNIPTLLLSGEIDPATPPSWGELAMEKLTNAKHFIAPYATHGVAYQSCANGLVADLVRTGSINDLDGECLNKDVRRSFYLNASSVEPLNATSTKTTTTNNNASTGAKE | not soluble
MGSDKIHHHHHHMRKMMNEQLPISKSSPLKARFYDYPYFTYPWHFHTEYEIIYVKEGTGMRFVGNNAEKYADGDILLLGSDLPHYMKSDEVYRQEGSTLRTTGTIIQFEKDFMHHAFNYYPHFMKIKNLLEEAQRGIYFPAGCSPRLVDLLESIPVETGVDQITSFLQLLKEMANVASRSVLSTSDFENDIIYDGSRIDKIIVYLNKNYTRQIDLNEISSLAAMNPAAFCRFFKSKTGKSFKNYILEMRIGYACKLLLMGDMNISQISVECGFDTISHFNKSFKKHTGFTPSYYKRMMLAE | not soluble
MSAPFEERSGVVPCGTPWGQWYQTLEEVFIEVQVPPGTRAQDIQCGLQSRHVALAVGGREILKGKLFDSTIADEGTWTLEDRKMVRIVLTKTKRDAANCWTSLLESEYAADPWVQDQMQRKLTLERFQKENPGFDFSGAEISGNYTKGGPDFSNLEK | soluble
SLVNPNQFKPLIVEQAKKQTGLDLVIEGDIGWQFFPSIGFELGKTELKNPQGFASPNLFKVESVGIDVSVMPLLDKQLKIGNIRLDGAEFHLETLKDGRSNLDALTQAQSKPASAPATTDSAPASQPSSSEPAAAWSIELGGVSVSNAVLEITDKKAGSHTKLYDVQLSVAEFVPDNWTKATFAAKGDKDQQKFAAQGEAEVRLSADFKQYALRNINLDASFSDPSNQIDSAKLKLDTFEFDKANALTFSVAGKAADMKLNAQGSASLMVNQAISKVGLDALKLQAELEGAALPQSPMKLSLDSQIAFDLTQNHLSVLLNKLTANALSFDGKADVTLADIPKVRFNLHSPEIDLDAFLGTKAQESQPAPAKEAAASSSSAPATNAPAEVEPDLSALKALDVAGEISIDKFKASNAHLQNVKANFAVNRGVVDLKSFTANLYQGSVQASAQVDARKTPATYSVKKQIKGVQVKPLLKDVLNNEMLEGTGNIDVNVQGQSLTPSGIQKNLVGTVAINFADGAVKGINVAHLIRTHYAKIKGQNVEEADAVKKTDFSAMTTTLKLNKGEVTTNDLNMQSPLLRIHGEGKANYLQQNVDFLVRTSIVGTLEGQGGKSLDELRDVTIPINISGAWSDPKFRLVFDDVLKQKAKKEVDRGVEKLTDKIKDEDTKKAVDGLLKGLFN | soluble
MSLFLNRLSLPKDYFIDTFLYYSDQDIAQISSYLPESNVSANVPGFKKNFVLKVFDHKIKPGETLSHVAARYQITSETLISFNEIKDVRNIKPNSVIKVPNMKGIVYIVKKNDSISSIASAYNVPKVDILDSNNLDNEVLFLGQKLFIPGGRLPKDFLKEVLGETFIYPVQGVITSGYGYRPDPFTGVISFHNGIDIANLANTPIKASREGVVVTAGFNAGGYGKYIVISHSNGFQTLYAHLNSFAVKVGKKVSRGAVIGYMGSTGYSTGNHLHFTIFKNGKTENPMKYEGHHHHHH | not soluble
SARRYDELPHYPGIVDGPAALASFPETVPAVPGPYGPHRPPQPLPPGLDSDGLKREKDEIYGHPLFPLLALVFEKCELATCSPRDGAGAGLGTPPGGDVCSSDSFNEDIAAFAKQVRSERPLFSSNPELDNLMIQAIQVLRFHLLELEKGKMPIDLVIEDRDGGCREDFEDYPASCPSLPDQNNMWIRDHEDSGSVHLGTPGPSSGGLASQSGDNSSDQGDGLDTSVASPSSGGEDEDLDQERRRNKKRGIFPKVATNIMRAWLFQHLSHPYPSEEQKKQLAQDTGLTILQVNNWFINARRRIVQPMIDQSNRTGQGAAFSPEGQPIGGYTETQPHVAVRPPGSVGMSLNLEGEWHYL | soluble
MSLDNESLLAILNNWSATNYAKGNYILREISSKFLAKISIDSNDYLLDAGCGDGSFTQMLANLVPDGYVLGLDRSKTMIDYANKHCRSINVRFDIGDIQEPIIYGPFDNILSFWCLHWTDLEKSLSNLYHVLKPGGKICAIFSSGKQSTLFEVLNSLQFQNLYPDVAKNVVQSKMMRENYSVQCRRALDNLPFKSISFVVEHCQVELPDLGLFENFIHGAPLFKDLPGKMYQDIVNGMVQFFDEYCKKKYGGKWVYETTPYFLTITREGHHHHHH | soluble
MGSDKIHHHHHHMAEEIPVYLFTGFMDSGKTSLIKDTIFENDFANGSKGLIIMCEDGDVEYDMDKLKAANIQVAEIDSEDEFAAAKLNELNMQYLPEQVFIEYNGTWGIDKIIEAELPKGWVIVQSLATVDSTTFDLYMNNMRAMMQEQVFASDVVIFNRTDDDTDRGHLRRTIKNINRKAQIVYERKDGTIDERPEELPFDINQDVIELSDADYAIWYMDAMENYKKYDGKVVKFLALVYNPDKLRKGVMVPGRFAMTCCIEDVTFIGFKCKYEDESSIPHKSWITITARVHVEFAREYKGKGPVLYPVSIEPAEKPQDELVYFS | not soluble
MVQKEGVLRVITRNSPATYFQDRNGETGFEYELAKRFAERLGVELKIETADNLDDLYAQLSREGGPALAAAGLTPGREDDASVRYSHTYLDVTPQIIYRNGQQRPTRPEDLVGKRIMVLKGSSHAEQLAELKKQYPELKYEESDAVEVVDLLRMVDVGDIDLTLVDSNELAMNQVYFPNVRVAFDFGEARGLAWALPGGDDDSLMNEVNAFLDQAKKEGLLQRLKDRYYGHVDVLGYVGAYTFAQHLQQRLPRYESHFKQSGKQLDTDWRLLAAIGYQESLWQPGATSKTGVRGLMMLTNRTAQAMGVSNRLDPKQSIQGGSKYFVQIRSELPESIKEPDRSWFALAAYNIGGAHLEDARKMAEKEGLNPNKWLDVKKMLPRLAQKQWYAKTRYGYARGGETVHFVQNVRRYYDILTWVTQPLEHHHHHH | soluble
QDLLLSYKGKLKNDSIEGEFRQGRFGTMMSLYRGLDAAKPYRPQTPVPPFPYDVTDVKILHKTGGFTIAGTLTAPKDANKTKGTVILISGSGLQDRDETIFGHKPFAVLADQLTRHGYAVLRCDDRGFGESAGDASQATTDTLAGDIESELAYLRQHYPRLTDKVFLIGHSEGGIIAPMVARRVGGIAGLVLVGAPSVKGAEILLSQNAAMDEFATGQPQSQAKRAALEELIRQATAPGDTSDIRTRIESYCRSNASVLFPQAMTDEMKEQGIKLMTEQLYTPWMRHFLTYDPAPLLDVTSGEGSHPLPPTMAIYGGRDKQVLHEVNMSKMKSLLGIETGNTTNKVVYLPEVNHIMQPAEFGTPDEYAFLNRTVDTELMEIVCSFLDSL | not soluble
MGSDKIHHHHHHMKKTPKLSVQLWSVKDAINQDFNGTLKTLSNMGFDGVEFAGELGSYANDAKALKLFLDSIDLKASGAHVSFEQLDQDNFQKTVDFYHQLQVDTLIIGLDDRSWHPQGIEEVVKLLNQLDTKLDPYNIKTGFHNHEHEFDNFKGTTYWDYLAMNTKDSVVLQQDVGWTTYAGKDAVEYVYKYPNRSFTTHYRVCIPEGVKGKQPIIGRDTIDWLRLLKANINVGGTKWIVVEQDVYPNGMSSLAAVALSKNGLEQYIDKL | not soluble
MGSDKIHHHHHHMTDVHASTQALKPARLLADSPSRFPGESAEYRRARNDLLVEEIELRRHIERVAAQRRALPAGGVVPEDYRFMGEAGPVALSEMFGAHDTLVTYNWMFGPQRVRPCPMCTSLLSAYDGEMPDILQRVAFAVIARAPIERLVAFGKERGWRHLRLYSSGGNSFNRDYAAEDPAGDDHPAFNVFTRSGGTVRHFWAEEMGPSTADPGQDPRGAPDVMPIWTVLDMTPGGRGTDWYPKLEYDTAPG | not soluble
